No end group written: not given here. *: point of attachment. Biotin = O=C1N[C@H]2[C@H](CS[C@H]2CCCCC(=O)*)N1
T1: TP-23 (human)
T1 peptide: Biotin-TEDMTEDELREFFSQ

T2: TP-40 (human)
T2 peptide: Biotin-NNQNQGNMQREPNQA

T3: TP-48 (human)
T3 construct: 23 residues
T3 peptide: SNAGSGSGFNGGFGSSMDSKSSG

T4: TDP-6 (human)
T4 construct: One of the 40-66 aa linear peptides; also called TDP-43 peptide 140-200
T4 peptide: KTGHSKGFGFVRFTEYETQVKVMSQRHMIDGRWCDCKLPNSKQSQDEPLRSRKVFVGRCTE

T5: TP-21 (human)
T5 peptide: Biotin-KQSQDEPLRSRKVFV


Assays:
TP-23 = target: T1, TP-23; experiment: indirect ELISA on TDP-43 peptides, antibody at 1 µg/ml
[1] = target: T6, human full length TDP-43 (FL TDP-43), recombinant, soluble (human, UniProt Q13148 1-414); experiment: Luminex, beads conjugated to FL TDP-43, antibody serial dilution
T6 construct: Antigen of Luminex, ELISA and SPR (soluble form); also called TDP-43 protein; Soluble TDP-43
T6 sequence (Q13148 whole entry): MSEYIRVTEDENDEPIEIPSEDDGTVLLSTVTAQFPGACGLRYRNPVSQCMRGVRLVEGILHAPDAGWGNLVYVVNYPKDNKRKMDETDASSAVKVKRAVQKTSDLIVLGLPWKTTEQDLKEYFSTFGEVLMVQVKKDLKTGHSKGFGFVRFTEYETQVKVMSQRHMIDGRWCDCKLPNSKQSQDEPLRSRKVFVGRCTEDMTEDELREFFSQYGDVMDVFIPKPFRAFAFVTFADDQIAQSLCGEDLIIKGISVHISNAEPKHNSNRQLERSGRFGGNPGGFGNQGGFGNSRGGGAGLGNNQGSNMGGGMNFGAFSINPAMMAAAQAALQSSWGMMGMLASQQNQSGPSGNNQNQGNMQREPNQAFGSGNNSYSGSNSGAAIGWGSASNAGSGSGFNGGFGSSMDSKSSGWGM
Description: Mice were euthanized and fusion with myeloma cells was performed using splenocytes from four individual mice. Screening for antibodies from the successfully fused hybridoma cell lines were performed as follows. Diluted (1:32) cell culture supernatants were analyzed using Luminex bead-based multiplex assay (Luminex, The Netherlands). Luminex beads were conjugated to FL TDP-43 and with capturing IgGs with anti-mouse IgG-Fc antibodies specific for the IgG1, IgG2a, IgG2b, IgG2c, and IgG3 subclasses (Jackson Immunoresearch, USA). Binding to beads conjugated to FL TDP-43 identified 386 hits derived from mice immunized with the FL TDP-43 liposomal vaccine.
Luminex assays with serial dilution of antibodies were performed as described before to determine half maximal effective concentration (EC50) of binding of antibodies to FL TDP-43. In summary, all tested antibodies bind to full length TDP-43 with high affinity.

TP-40 = target: T2, TP-40; experiment: indirect ELISA on TDP-43 peptides, antibody at 1 µg/ml
TP-48 = target: T3, TP-48; experiment: as above
TDP-6 = target: T4, TDP-6; experiment: as above
TP-21 = target: T5, TP-21; experiment: as above

binding result (TP-23)	EC50 [1] [µM]	Binder	also measured
binds	< 10	ACI-7071-809D9-Ab2 (antibody, IgG2b, V domains shown, also called 809D9C2) VH: QVQLQQSGAELVRPGVSVKISCKGSGYKFTDYSMHWVKQSHTKSLEWIGVISTYYGDTTYNQKFKGKATITVDKSSSTAYMELARLTSEDSAIYYCATYGNFPASFSYWGQGTLVTVSA VL: DIVMTQAAPSIPVTPGESVSISCRSSKSLLHSNGNTYLYWFLQRPGQSPQLLIYRMSNLASGVPDRFSGSGSGTAFTLRISRVEAEDVGVYYCMQHLEYPFTFGSGTKLEIK	–
–	< 10	ACI-7069-633B12-Ab1 (antibody, IgG2b, V domains shown, also called 633B12C8) VH: EVQLQQSGPELVKPGASVKISCKTSGFTFTEYSMHWVKQSHGKSLEWIGGINPNNGGTSYNQKFKGKATLTVDKSSSTAYMELRSLTSEDSAVYYCARESWGQGTTLTVSS VL: not shown	–
–	< 10	ACI-7069-631B2-Ab1 (antibody, IgG1, V domains shown, also called 631B2A2) VH: EVQLQQSGPELVKPGASVKISCKTSGYTFTEYSIHWVKQSHGESLEWIGGINPDNGGTRYNQKFKGKATLTVDKSSSTAYMDLRSLTSEDSAVYYCARESWGQGTTLTVSS VL: not shown	–
binds	< 10	ACI-7071-809F12-Ab1 (antibody, IgG2b, V domains shown, also called 809F12D8) VH: QVQLKESGPGLVAPSQSLSITCTVSGFSLNRNGVQWVRQPPGKGLEWLGVIWPGGSTNCNSALMSRLSISKDNSKSQVFLKMNSLHTDDTGIYYCARVGGNYVWDYNNYAWGQGTLVTVSA VL: DVLMTQTPLSLPVSLGDQASISCRSSQNIVHSIGNTYLEWYLQKPGQSPKLLIYKVSNRFSGVPDRFSGSGSGTDFTLKISRVEAEDLGVYYCFQGSHVPYTFGGGTKLEIR	–
binds	< 10	ACI-7069-641H1-Ab2 (antibody, IgG2b, V domains shown, also called 641H1E7) VH: QVQLKESGPGLVAPSQSLSITCTVSGFSLTNYGVHWVRQPPGKGLEWLGLMWAGGSTNYNSALMSRLSISKDNSKSQVFLKMNSLQTDDTAMYYCVIYRTGFAYWGQGTLVTVSA VL: DVLMTQTPLSLPVSLGDQASISCRSSQSIVHTIGNTYLEWYLQKPGQSPKLLIYKVSNRFSGVPDRFSGSGSGTDFTLKISRVEAEDLGVYYCFQGSHVPFTFGSGTKLEIK	–
binds	< 10	ACI-7069-646B7-Ab1 (antibody, IgG2b, V domains shown, also called 646B7F7) VH: QVQLKESGPGLVAPSQSLSITCTVSGFSLTNFGVHWVRQPPGKGLEWLGIMWAGGSTNYNSALMSRLSISKDNSKSQVFLKMNSLQTDDTAMYYCVIYKTGFAYWGQGTLVTVSA VL: DVLMTQTPLSLPVSLGDQASISCRSSQSIVHAIGNTYLEWYLQKPGQSPKLLIYKVSNRFSGVPDRFSGSGSGTDFTLKISRVEAEDLGVYYCFQGSHVPFTFGSGTKLEIK	–
–	< 10	ACI-7069-636E5-Ab1 (antibody, IgG2b, V domains shown, also called 636E5B8) VH: EVHLVESGGDLVMPGGSLKLSCAASGFTFSNYGMSWVRQTPDKRLEWVATISSGGKYINYLDSLKGRFTISRDNAKNTLYLQMSSLKSEDTAMYYCAKDYGSGWAWFAYWGQGTLVTVSA VL: QLVLTQSSSASFSLGASAKLTCTLSSQHSTYTIEWYQQQPLKPPKYVMELKKDGSHSTGDGIPDRFSGSSSGADRYLSISNIQPEDEAIYICGVGDTIKEQFVYVFGGGTKVTVL	binding result (TP-40): binds
–	–	ACI-7069-642A10-Ab1 (antibody, IgG1, V domains shown, also called 642A10B11) VH: QVQLQQPGAELVKPGASVKLSCKASGYTFTKYWMHWVKQRPGQGLEWIGEINPSNGRTNYNEKFKSKATLTVDKSSSTAYMQLSSLTSEDSAVYYCARYMDYWGQGTSVTVSS VL: not shown	binding result (TP-48): binds
–	180	ACI-7071-712A6-Ab1 (antibody, IgG2c, V domains shown, Mouse hybridoma antibody, IgG2c; also called 712A6B10) VH: QVQLQQSGAELVKPGTSVKLSCKASAYTFTEYTIHWIKQKSGQGLEWIGWFHPENDNIKYNENFKDKATLTADRSSSTVYMELSRLTSEDSAVYFCAGTSGYGDYWGQGTTLTVSS VL: not shown	–
–	< 10	ACI-7069-634H10-Ab2 (antibody, IgG2b, V domains shown, also called 634H10H7) VH: EVQLQQSGAELVKPGASVRLSCTASGFNIKDTYMHWVKQRPEQGLEWIGRIDPANSNTKFDPKFQGKATITSDTSSNTAYLQLSSLTSEDTAVYYCARFYGGSHWYFDVWGAGTTVTVSS VL: DIKMTQSPSSMYASLGERVTITCKASQDIKSYLSWYQHKPWKSPKALIYYATSLADGVPSRFSGSGSGQDYSLTISSLESDDTATYYCLQQGESPYTFGGGTKLEIK	binding result (TDP-6): binds
–	< 10	ACI-7069-642D12-Ab1 (antibody, IgG2b, V domains shown, also called 642D12B4) VH: EVQLQQSGAELVKPGASVRLSCTASGFNIKDPYMHWVRQRPKQGLEWIGRIDPADGNTKYDPKFQGKATLTADTSSNVAYLHLSSLTSEDTAVYYCARFYGSSHWYFDVWGAGTTVTVSS VL: DIKMTQSPSSMYASLGERVTITCKASQDIKRYLSWYQQKPWKSPKILIYYATSLADGVPSRFSGTGSGQDYSLTISSLESDDVATYYCLQQGESPYTFGGGTKLEIK	binding result (TP-21): binds

From US20220315648A1 (AC IMMUNE, published 2022)
